{
  "source": "patent US20070020743A1",
  "about": "“Undecaprenyl pyrophosphate synthase (upps)enzyme and methods of use” (priority 2001, published 2007)",
  "key": {"[1]": {"system": "CC(C)=CCC/C(C)=C/CC/C(C)=C/CO[P@@](=O)(O)OP(=O)(O)O", "experiment": "purified protein, by the assay type", "conditions": "other: substrate Km of S. pneumoniae UPPS; pH optimum 7.5-8.0; pH 7.5; 25.0 °C", "description": "The reaction was incubated at 25° C. for 25 min and stopped by addition of EDTA to 50 mM. The reaction was extracted with equal volume of 1-butanol and the radioactivity in the butanol phase was measured with a liquid scintillation counter (Shimizu, N., T. Koyama, and K. Ogura. (1998) J. Biol. Chem. 273:19476-19481)."}, "[2]": {"system": "C=C(C)CCO[P@@](=O)(O)OP(=O)(O)O", "experiment": "purified protein, by the assay type", "conditions": "other: substrate Km of S. pneumoniae UPPS; pH optimum 7.5-8.0; pH 7.5; 25.0 °C"}},
  "data": [
    {"substance": "S. pneumoniae UPPS (Streptococcus pneumoniae TIGR4)", "values": [
      {"measurement": "Km", "setting": "[1]", "result": 0.5, "unit": "µM"},
      {"measurement": "Km", "setting": "[2]", "result": 3.6, "unit": "µM"}
    ]}
  ]
}
